# Laboratory results as given in patent publication US9212231B2, “TRAIL R2-specific multimeric scaffolds” (MEDIMMUNE, LLC, dated 2015).
# Substitutions are numbered along the chain they refer to. Several values for one entry are separate records, joined by “and”; a condition that tells them apart may be missing. Equal entries are not always repeated.
# B1: A1(1E11) (designed binder)
# chain: AIEVKDVTDTTALITWAKPWVDPPPLWGCELAYGIKDVPGDRTTIDLQQKHTAYSIGNLKPDTEYEVSLICFDPYGAKSNPAKETFTTGGGTLGHHHHHHHH
# B2: A5(1E11) (designed binder)
# chain: SGGGGSAIEVKDVTDTTALITWAKPWVDPPPLWGCELAYGIKDVPGDRTTIDLQQKHTAYSIGNLKPDTEYEVSLICFDPYGAKSNPAKETFTTGGGGSGGGGSGGGGSAIEVKDVTDTTALITWAKPWVDPPPLWGCELAYGIKDVPGDRTTIDLQQKHTAYSIGNLKPDTEYEVSLICFDPYGAKSNPAKETFTTGGGGSGGGGSGGGGSAIEVKDVTDTTALITWAKPWVDPPPLWGCELAYGIKDVPGDRTTIDLQQKHTAYSIGNLKPDTEYEVSLICFDPYGAKSNPAKETFTTGGGGSGGGGSGGGGSAIEVKDVTDTTALITWAKPWVDPPPLWGCELAYGIKDVPGDRTTIDLQQKHTAYSIGNLKPDTEYEVSLICFDPYGAKSNPAKETFTTGGGGSGGGGSGTGSAMASGGGGSAIEVKDVTDTTALITWAKPWVDPPPLWGCELAYGIKDVPGDRTTIDLQQKHTAYSIGNLKPDTEYEVSLICFDPYGAKSNPAKETFTTGGGGSGGGGSGGGGSAIEVKDVTDTTALITWAKPWVDPPPLWGCELAYGIKDVPGDRTTIDLQQKHTAYSIGNLKPDTEYEVSLICFDPYGAKSNPAKETFTTGGGGSGGGGSGGGGSAIEVKDVTDTTALITWAKPWVDPPPLWGCELAYGIKDVPGDRTTIDLQQKHTAYSIGNLKPDTEYEVSLICFDPYGAKSNPAKETFTTGGGGSGGGGSGGGGSAIEVKDVTDTTALITWAKPWVDPPPLWGCELAYGIKDVPGDRTTIDLQQKHTAYSIGNLKPDTEYEVSLICFDPYGAKSNPAKETFTTGGGGSGGGGSGTLGHHHHHHHH
# B3: A3 (G6) (designed binder)
# chain: SGGGGSAIEVKDVTDTTALITWAKPWVDPPPLWGCELAYGIKDVPGDRTTIDLQQKHTAYSIGNLKPDTEYEVSLICFDPYGMRSKPAKETFTTGGGGSGGGGSGGGGSAIEVKDVTDTTALITWAKPWVDPPPLWGCELAYGIKDVPGDRTTIDLQQKHTAYSIGNLKPDTEYEVSLICFDPYGMRSKPAKETFTTGGGGSGGGGSGGGGSAIEVKDVTDTTALITWAKPWVDPPPLWGCELAYGIKDVPGDRTTIDLQQKHTAYSIGNLKPDTEYEVSLICFDPYGMRSKPAKETFTTGGGGSGGGGSGGGGSAIEVKDVTDTTALITWAKPWVDPPPLWGCELAYGIKDVPGDRTTIDLQQKHTAYSIGNLKPDTEYEVSLICFDPYGMRSKPAKETFTTGGGGSGGGGSGTLGHHHHHHHH
# B4: A5(G6) (designed binder)
# chain: SGGGGSAIEVKDVTDTTALITWAKPWVDPPPLWGCELAYGIKDVPGDRTTIDLQQKHTAYSIGNLKPDTEYEVSLICFDPYGMRSKPAKETFTTGGGGSGGGGSGGGGSAIEVKDVTDTTALITWAKPWVDPPPLWGCELAYGIKDVPGDRTTIDLQQKHTAYSIGNLKPDTEYEVSLICFDPYGMRSKPAKETFTTGGGGSGGGGSGGGGSAIEVKDVTDTTALITWAKPWVDPPPLWGCELAYGIKDVPGDRTTIDLQQKHTAYSIGNLKPDTEYEVSLICFDPYGMRSKPAKETFTTGGGGSGGGGSGGGGSAIEVKDVTDTTALITWAKPWVDPPPLWGCELAYGIKDVPGDRTTIDLQQKHTAYSIGNLKPDTEYEVSLICFDPYGMRSKPAKETFTTGGGGSGGGGSGTGSAMASGGGGSAIEVKDVTDTTALITWAKPWVDPPPLWGCELAYGIKDVPGDRTTIDLQQKHTAYSIGNLKPDTEYEVSLICFDPYGMRSKPAKETFTTGGGGSGGGGSGGGGSAIEVKDVTDTTALITWAKPWVDPPPLWGCELAYGIKDVPGDRTTIDLQQKHTAYSIGNLKPDTEYEVSLICFDPYGMRSKPAKETFTTGGGGSGGGGSGGGGSAIEVKDVTDTTALITWAKPWVDPPPLWGCELAYGIKDVPGDRTTIDLQQKHTAYSIGNLKPDTEYEVSLICFDPYGMRSKPAKETFTTGGGGSGGGGSGGGGSAIEVKDVTDTTALITWAKPWVDPPPLWGCELAYGIKDVPGDRTTIDLQQKHTAYSIGNLKPDTEYEVSLICFDPYGMRSKPAKETFTTGGGGSGGGGSGTLGHHHHHHHH
# B5: C1(M13) (designed binder)
# chain: AIEVKDVTDTTALITWHDAFGYDFGCELTYGIKDVPGDRTTIDLPDHFHNYSIGNLKPDTEYEVSLICANDHGFDSNPAKETFTTAGGGGSRLDAPGQIEVKDVTDTTALITWHDAFGYDFGCELTYGIKDVPGDRTTIDLPDHFHNYSIGNLKPDTEYEVSLICANDHGFDSNPAKETFTTGGGTLGHHHHHHHH
# B6: M13 (M13) (designed binder)
# chain: AIEVKDVTDTTALITWHDAFGYDFGCELTYGIKDVPGDRTTIDLPDHFHNYSIGNLKPDTEYEVSLICANDHGFDSNPAKETFTTGGGTLGHHHHHHHH
# B7: C2(M13) (designed binder)
# chain: AIEVKDVTDTTALITWHDAFGYDFGCELTYGIKDVPGDRTTIDLPDHFHNYSIGNLKPDTEYEVSLICANDHGFDSNPAKETFTTGGGGSGGGGSGGGGSRLDAPGQIEVKDVTDTTALITWHDAFGYDFGCELTYGIKDVPGDRTTIDLPDHFHNYSIGNLKPDTEYEVSLICANDHGFDSNPAKETFTTGGGTLGHHHHHHHH
# B8: C3(M13) (designed binder)
# chain: AIEVKDVTDTTALITWHDAFGYDFGCELTYGIKDVPGDRTTIDLPDHFHNYSIGNLKPDTEYEVSLICANDHGFDSNPAKETFTTGGGGSGGGGSGGGGSGGGGSGGGGSRLDAPGQIEVKDVTDTTALITWHDAFGYDFGCELTYGIKDVPGDRTTIDLPDHFHNYSIGNLKPDTEYEVSLICANDHGFDSNPAKETFTTGGGTLGHHHHHHHH
# B9: C4(M13) (designed binder)
# chain: AIEVKDVTDTTALITWHDAFGYDFGCELTYGIKDVPGDRTTIDLPDHFHNYSIGNLKPDTEYEVSLICANDHGFDSNPAKETFTTGGGGSGGGGSGGGGSGGGGSGGGGSGGGGSGGGGSRLDAPGQIEVKDVTDTTALITWHDAFGYDFGCELTYGIKDVPGDRTTIDLPDHFHNYSIGNLKPDTEYEVSLICANDHGFDSNPAKETFTTGGGTLGHHHHHHHH
# B10: 1C12 (designed binder)
# chain: AIEVKDVTDTTALITWAKPEKWDGSIYGCELAYGIKDVPGDRTTIDLNSRHTAYSIGNLKPDTEYEVSLICFTPYGAKSNPAKETFTTGGGTLGHHHHHHHH
# B11: G3 (designed binder)
# chain: B10 chain with G24P, S25P, I26L, Y27W
# B12: C4 (designed binder)
# chain: B1 chain with G76N, A77K, K78R, S79N, N80V
# B13: G6 (designed binder)
# chain: B1 chain with A77M, K78R, N80K
# B14: A4(1E11) (designed binder)
# chain: SGGGGSAIEVKDVTDTTALITWAKPWVDPPPLWGCELAYGIKDVPGDRTTIDLQQKHTAYSIGNLKPDTEYEVSLICFDPYGAKSNPAKETFTTGGGGSGGGGSGGGGSAIEVKDVTDTTALITWAKPWVDPPPLWGCELAYGIKDVPGDRTTIDLQQKHTAYSIGNLKPDTEYEVSLICFDPYGAKSNPAKETFTTGGGGSGGGGSGGGGSAIEVKDVTDTTALITWAKPWVDPPPLWGCELAYGIKDVPGDRTTIDLQQKHTAYSIGNLKPDTEYEVSLICFDPYGAKSNPAKETFTTGGGGSGGGGSGGGGSAIEVKDVTDTTALITWAKPWVDPPPLWGCELAYGIKDVPGDRTTIDLQQKHTAYSIGNLKPDTEYEVSLICFDPYGAKSNPAKETFTTGGGGSGGGGSGTGSAMASGGGGSAIEVKDVTDTTALITWAKPWVDPPPLWGCELAYGIKDVPGDRTTIDLQQKHTAYSIGNLKPDTEYEVSLICFDPYGAKSNPAKETFTTGGGGSGGGGSGGGGSAIEVKDVTDTTALITWAKPWVDPPPLWGCELAYGIKDVPGDRTTIDLQQKHTAYSIGNLKPDTEYEVSLICFDPYGAKSNPAKETFTTGGGGSGGGGSGTLGHHHHHHHH
# Experiments:
# [1] = molecular target: TRAIL R2 (recombinant, form not given) (human, UniProt O14763, biotin (in the capture ELISA and the competition ELISA of Example 14)); assay: SPR (ProteOn XPR36), TRAIL R2 immobilised, equilibrium analysis
# [2] = molecular target: TRAIL R2-Fc fusion protein (human) (UniProt O14763); assay: competition ELISA: inhibition of binding of 0.75 nM biotinylated TRAIL R2-Fc to plate-coated A9(1C12)
# TRAIL R2-Fc fusion protein (human), sequence (O14763 56-182 limits assumed): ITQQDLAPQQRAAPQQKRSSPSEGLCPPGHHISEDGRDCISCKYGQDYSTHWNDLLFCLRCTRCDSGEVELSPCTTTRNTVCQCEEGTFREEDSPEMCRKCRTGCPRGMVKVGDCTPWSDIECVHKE
# [3] = molecular target: T1, TRAIL R2 expressed on the cell surface (human, UniProt O14763); assay: cell-based or functional assay
# [4] = molecular target: T1, TRAIL R2 expressed on the cell surface; assay: cell-based or functional assay; remark: listed apart in the source
# [5] = molecular target: T1, TRAIL R2 expressed on the cell surface; assay: cell-based or functional assay; remark: listed apart in the source
# [6] = molecular target: T1, TRAIL R2 expressed on the cell surface; assay: cell-based or functional assay; remark: listed apart in the source
# [7] = molecular target: Murine CD40L on the Th2 cell line D10.G4.1 (murine, UniProt P27548); assay: cell-based or functional assay
# [8] = molecular target: recombinant Murine CD40L (E. coli produced) (murine, UniProt P27548); assay: biosensor competition: inhibition of Murine CD40L (0.5 µg/ml) binding to immobilised Murine CD40-Fc
binder,measurement,setting,value
B1,"Fold Improvement (Kd, against lead clone 1C12)",[1],40 fold
same,Kd,[1],103 nM
same,IC50,[2],16 nM
B2,"EC50, killing of H2122 cells",[3],0.0006 nM
same,"Maximum Inhibition %, H2122 cells",[3],97%
B3,"EC50, killing of Colo205 cells",[4],0.04 nM
same,"Maximum Inhibition %, Colo205 cells",[4],97%
same,"EC50, killing of Jurkat cells",[5],0.05 nM
same,"Maximum Inhibition %, Jurkat cells",[5],83%
B4,"EC50, killing of Colo205 cells",[4],0.0005 nM
same,"Maximum Inhibition %, Colo205 cells",[4],100%
same,"EC50, killing of Jurkat cells",[5],0.0001 nM
same,"Maximum Inhibition %, Jurkat cells",[5],100%
same,"IC50 of cell killing, 786-0 cells (CellTiter-Glo)",[6],> 10 nM
same,"IC50 of cell killing, BT-649 cells (CellTiter-Glo)",[6],> 10 nM
same,"IC50 of cell killing, CaCo-2 cells (CellTiter-Glo)",[6],0.044 nM
same,"IC50 of cell killing, HPAF-II cells (CellTiter-Glo)",[6],0.016 nM
same,"IC50 of cell killing, HT29 cells (CellTiter-Glo)",[6],0.01 nM
same,"IC50 of cell killing, Hep3B cells (CellTiter-Glo)",[6],0.023 nM
same,"IC50 of cell killing, Hep G2 cells (CellTiter-Glo)",[6],0.04 nM
same,"IC50 of cell killing, Hs766T cells (CellTiter-Glo)",[6],> 10 nM
same,"IC50 of cell killing, LoVo cells (CellTiter-Glo)",[6],0.005 nM
same,"IC50 of cell killing, NCI-H23 cells (CellTiter-Glo)",[6],> 10 nM
same,"IC50 of cell killing, NCI-H522 cells (CellTiter-Glo)",[6],> 10 nM
same,"IC50 of cell killing, SKHEP-1 cells (CellTiter-Glo)",[6],0.055 nM
same,"IC50 of cell killing, SNB-75 cells (CellTiter-Glo)",[6],> 10 nM
same,"IC50 of cell killing, SNU-387 cells (CellTiter-Glo)",[6],> 10 nM
same,"IC50 of cell killing, SNU-398 cells (CellTiter-Glo)",[6],> 10 nM
same,"IC50 of cell killing, SNU-475 cells (CellTiter-Glo)",[6],> 10 nM
same,"IC50 of cell killing, SW820 cells (CellTiter-Glo)",[6],> 10 nM
same,"IC50 of cell killing, SW837 cells (CellTiter-Glo)",[6],> 10 nM
same,"IC50 of cell killing, T84 cells (CellTiter-Glo)",[6],0.247 nM
B5,"IC50, inhibition of Murine CD40L-induced CD86 expression on CD19 gated B cells",[7],100000 to 200000 nM
same,IC50,[8],29 nM
B6,IC50,[8],71 nM
B7,"IC50, inhibition of Murine CD40L-induced CD86 expression on CD19 gated B cells",[7],100000 to 200000 nM
same,IC50,[8],5 nM and 6 nM
B8,"IC50, inhibition of Murine CD40L-induced CD86 expression on CD19 gated B cells",[7],100000 to 200000 nM
same,IC50,[8],5 nM and 6 nM
B9,"IC50, inhibition of Murine CD40L-induced CD86 expression on CD19 gated B cells",[7],100000 to 200000 nM
same,IC50,[8],5 nM and 6 nM
B10,Kd,[1],4130 nM
B11,"Fold Improvement (Kd, against lead clone 1C12)",[1],10 fold
same,Kd,[1],422 nM
B12,"Fold Improvement (Kd, against lead clone 1C12)",[1],83 fold
same,Kd,[1],50 nM
B13,"Fold Improvement (Kd, against lead clone 1C12)",[1],96 fold
same,Kd,[1],43 nM
B14,"EC50, killing of H2122 cells",[3],0.0009 nM
same,"Maximum Inhibition %, H2122 cells",[3],97%
